In patent publication US20210371503A1 (UNIVERSITY OF COLOGNE, published 2021):
Changes are numbered by the printed parent chain. Where two headings read alike, the source gives them in different places.

B1: MnC4t2p1_B3 (antibody, V domains shown)
VH: EVQLVESGGHLVQPGRSLRLSCAASGFTFDDYAMHWVRQVPGKGLEWVSGISWNGGILDYADSVKGRFTISRDNAKNSLYLHMRSLRTDDTALYYCAKDLRRQDYYADWYFDLWGRGTLVTVSS
VL: DIQMIQSPSSVSASVGDRVTITCRASQGISSWLAWYQQKPGKAPKLLIYAASTLLSAVPSRFSGSGSGTDFTLTISSLQPEDFATYYCQQGNSFPFTFGPGTIVDV
B2: MnC4t2p1_E6 (antibody, V domains shown)
VH: B1 VH with D59G, H82Q
VL: B1 VL with I5T, I103K
B3: MnC4t1p1_A11 (antibody, V domains shown)
VH: EVQLVESGGGLVQPGGSLRLSCAASGFTFSSYSMNWVRQAPGKGLEWVSYISSSSNTRYYTDSVMGRFTISRDNAKNSLFLQMNSLRAEDTAVYYCASSKGFCSGGSCSDYWGQGTLVTVSS
VL: EIVLTQSPGTLSLSPGERATLSCRASQSVSSSYLAWYQQKPGQAPRLLIYGVSSRATGIPDRFSGSGSGTDFTLTISRLEPEDFVVYYCHQYGSSPWTFGQGTKVEIK
B4: MnC2t2p1_C11 (antibody, V domains shown)
VH: QVQLVQSGAEVKKPGSSVKVSCKASGGTFSRYTIIWVRQAPGQGLEWMGRIIPILDIANYAQKFQGRVTITADKSTSTAYMELSSLRSEDTAVYYCAREGGLDYFGSRNSGWTYTWFDPWGQGTLVTVSS
VL: DIQMTQSPSSLSASVGDRVTITCRASQNISSYLNWYQQKPGKAPNLLIYAASSLQSGVPPRFSGSGSGTDFTLTISSLQPEDFATYYCQQSYSTLYSFGQGTKLEIK
B5: DZIF-10c (antibody, V domains shown)
VH: QVQLVESGGGVVQPGRSLRLSCAATGFTFRRYGMHWVRQAPGKGLEWVAGILFDGSNKYYVDSVKGRFTISRDSSRNTLYLQLNSLRREDTAVYYCAKGGDYEWELLESWGQGTLVTVSS
VL: DIQMTQSPSTVSASVGDRVTITCRASQSIDNWLAWYQEKPGKAPKVLIYKASSLESGVPSRFSGRGSGTEFTLTISSLQPGDFATYYCQHYHSFPLTFGGGTKVDIKR
notes: also called HbnC3t1p1_F4(-K); EX14870
B6: MnC2t1p1_A3 (antibody, V domains shown)
VH: EVQLVESGGGLVQPGGSLRLSCAASGFTVSSNYMSWVRQAPGRGLEWVSVIYSGGSTFYADSVKGRFTISRDNSKNTLYLQMNSLRPEDTAVYYCATGARFGESPFDYWGQGTLVTVSS
VL: DIQMTQSPSSVSASVGDRVTITCRASQGISSWLAWYQQKPGKAPKLLIYAASSLQSGVPSRFSGSGSGTDFTLTISSLQPEDFATYYCQQANSFPGTFGQGTKVEIK
B7: MnC4t2p2_A4 (antibody, V domains shown)
VH: QVQLVQSGSELKKPGASVKISCKASGYIFINYAMNWVRQAPGQGLEWMGWINTNTGNPTYAQDFTGRFVFSLDTSLSTAYLQISSLEAEDTAVYYCAKIGSRNSLGVWGQGTLVTVSA
VL: EIVLTQSPGTLSLSPGERATLSCRASHSVDRSYLAWYQQKPGLAPRLLIYGASSRATGIPDRFSGSGSGTDFTLTISRLEPEDFALYYCQHFGTSSVTFGRGTRLEIK

Tests used:
[1] = molecular target: T1, receptor-binding domain (RBD) of the spike (S) protein of SARS-CoV-2 (SARS-CoV-2, UniProt P0DTC2 319-541)
[2] = molecular target: T1, receptor-binding domain (RBD) of the …; test: ELISA, coated RBD [cont'd]
[3] = molecular target: S1 (truncated S1 subunit); test: ELISA, coated truncated S1 [cont'd]
[4] = molecular target: T1, receptor-binding domain (RBD) of the …; test: ELISA, coated RBD [cont'd]; remark: listed apart in the source
[5] = molecular target: S1 (truncated S1 subunit); test: ELISA, coated truncated S1 [cont'd]; remark: listed apart in the source
[6] = molecular target: T1, receptor-binding domain (RBD) of the …; remark: listed apart in the source
[7] = molecular target: T1, receptor-binding domain (RBD) of the …; test: assay not stated; row Binding Affinity Spike RBD

Binder | Kd [1] [nM] | EC50 [2] [mg/L] | EC50 [3] [mg/L] | EC50 [4] [mg/L] | EC50 [5] [mg/L] | Kd [6] [nM] | Kd [7] [nM]
B1 | 0.09 | < 100 | < 100 |  |  |  | 
B2 |  |  |  | < 100 | < 100 |  | 
B3 |  | < 100 | < 100 |  |  | 2000 | 
B4 | 0.02 | < 100 | < 100 |  |  |  | 
B5 |  |  |  |  |  |  | 2
B6 | 0.7 | < 100 | < 100 |  |  |  | 
B7 | 14 |  |  | < 100 | < 100 |  | 
